Source: US20180016324A1 (Regeneron, published 2018)
Like-named read-outs stand apart in the source and are kept apart here.

B1: H2aM25710N (antibody, V domains shown)
VH: EVQLLESGGGLVQPGGSLRLSCAASGFTVSNNYMSWVRQAPGKGLEWVSVIYSGGRTNYGDSVKGRFTISRDNSKNTLYLQMNSLRAEDTAVYYCARENYDFWSGDPYGWDVWGQGTTVTVSS
VL: DIQMTQSPSSLSASVGDRVTITCRASQDISNYLAWFQQKPGKAPKSLIYGASSLQRGVPSKFRGSGSGTDFTLTISSLQPEDFASYYCQQYNSYPYTFGQGTKLEIK
B2: H4H25619P (antibody, V domains shown)
VH: QVQLVESGGGVVQPGRSLRLSCTASGFTFSTYGMHWVRHVPGKGLEWVAIVWYDGSDKSYAASVKGRFTISRDNSKNTLFLQMNSLRAEDTAVYYCARQGTYYYYGMDVWGQGTTVTVSS
VL: DIQMTQSPSSLSASVGDRVTITCRSSQTITNYLNWYQQRPGKAPKLLIYAASSLQSGVPSRFSGSGSGTDFTLTISSLQPEDFATYYCQQSYSTPPITFGQGTKLEIKR
B3: H4H25703N (antibody, V domains shown)
VH: QVQLVESGGGVVQPGRSLRLSCAASGFTFNYYGMHWVRQAPGKGLEWVAVISYDGTNKYYADSVKGRFTTSRDNSKNTLYLQMNSLRAEDTALYYCARDRGGRFDYWGQGIQVTVSS
VL: EIVLTQSPDTLSLSPGERATLSCRASQSVSSNYLAWYQQKPGQAPRLLIYGASSRATGIPDRFSGSGSGTDFTLTISRLEPEDFAVYYCQRYGTSPLTFGGGTKVEIKR
B4: H4H25704N (antibody, V domains shown)
VH: QVQLVESGGGVVQSGRSLRLSCAASGFTFIYYGMHWVRQAPGKGLEWVAVISYDGSDRYYADSVKGRFTISRDDSKNTLYLQMNSLRPEDTAVYYCAKDRGGRFDYWGQGTLVTVSS
VL: EIVLTQSPGTLSLSPGERATLSCRASQSVNNNYLAWYQQKPGQAPRLLIYGASSRATGIPDRFGGGGSGTDFTLTISRLEPEDFAVYYCQRYGNSPLTFGGGTKVEIK

Experiments:
[1] = biological target: T1, ZIKV prM/E polyprotein on virus-like particles (VLPs) from HEK293T/17 cells (Zika virus, UniProt A0A024B7W1 123-795); assay: MSD ECL, VLPs on plate
T1 construct: also called ZIKV prM/E VLPs; Zika prM/E VLPs

[2] = biological target: T2, ZIKV envelope glycoprotein (E) of strain MR766 (Uganda 1947) (Zika virus, UniProt Q32ZE1 291-790); assay: cell-based or functional assay
[3] = biological target: T3, ZIKV (prM80E) with a C-terminal myc-myc-hexahistidine tag (Zika virus, UniProt A0A024B7W1 104-694); assay: SPR, mAb captured, 37C
T3 construct: also called ZIKV (prM80E)-mmH; ZIKV-mmH

[4] = biological target: T3, ZIKV (prM80E) with a C-terminal …; assay: SPR, mAb captured, 37C, pH 6.0 chase
[5] = biological target: ZIKV E protein with escape mutation S302F (Zika virus); assay: cell-based or functional assay
[6] = biological target: T3, ZIKV (prM80E) with a C-terminal …; assay: SPR, mAb captured, 37C, pH 5.5 chase
[7] = biological target: T3, ZIKV (prM80E) with a C-terminal …; assay: SPR, mAb captured, 37C; remark: listed apart in the source
[8] = biological target: T3, ZIKV (prM80E) with a C-terminal …; assay: SPR, mAb captured, 25C
[9] = biological target: ZIKV envelope glycoprotein (E) of strain PRVABC59 (Puerto Rico 2015) (Zika virus); assay: cell-based or functional assay
[10] = biological target: ZIKV envelope glycoprotein (E) of strain FLR (Colombia 2015) (Zika virus); assay: cell-based or functional assay
[11] = biological target: T2, ZIKV envelope glycoprotein (E) of …; assay: cell-based or functional assay; remark: listed apart in the source
[12] = biological target: T3, ZIKV (prM80E) with a C-terminal …; assay: SPR, mAb captured, 37C, pH 7.4
[13] = biological target: T3, ZIKV (prM80E) with a C-terminal …; assay: SPR, mAb captured, 37C; remark: listed apart in the source
[14] = biological target: T3, ZIKV (prM80E) with a C-terminal …; assay: SPR, mAb captured, 37C, pH 5.0 chase
[15] = biological target: ZIKV E protein with escape mutations T311I and K369E (Zika virus); assay: cell-based or functional assay
[16] = biological target: T1, ZIKV prM/E polyprotein on virus-like …; assay: MSD ECL, VLPs on plate; high concentrations excluded from fit

Binder	EC50 [1]	Kd [3]	koff [3]	kon [3]	t½ [3]	koff [4]	t½ [4]	koff [6]	t½ [6]	t½ pH 7.4/t½ pH 6.0 [7]	Kd [8]	koff [8]	kon [8]	t½ [8]	neutralization IC50, Vero cells [9]	neutralization IC50, Vero cells [10]	neutralization IC50, Vero cells [11]	koff [12]	t½ [12]	t½ pH 7.4/t½ pH 5.0 [13]	also measured
B1	0.244 nM	–	–	–	–	–	–	–	–	–	–	–	–	–	–	–	–	–	–	–	neutralization IC50, Vero cells [2]: 0.017 nM
B2	1.92 nM	5.59 nM	0.00108 s⁻¹	193000 M⁻¹ s⁻¹	10.7 min	0.00102 s⁻¹	11.3 min	0.000953 s⁻¹	12.1 min	0.5	3.14 nM	0.000516 s⁻¹	164000 M⁻¹ s⁻¹	22.4 min	1.14 nM	1.26 nM	0.171 nM	0.00193 s⁻¹	6 min	0.3	IC50 (read off the curve) [5]: ~1 nM; t½ pH 7.4/t½ pH 5.5 [13]: 0.5; koff [14]: 0.000548 s⁻¹; t½ [14]: 21.1 min
B3	0.0846 nM	2.39 nM	0.00177 s⁻¹	738000 M⁻¹ s⁻¹	6.5 min	0.00283 s⁻¹	4.08 min	0.00326 s⁻¹	3.54 min	1.3	0.542 nM	0.000307 s⁻¹	566000 M⁻¹ s⁻¹	37.6 min	0.251 nM	0.0619 nM	0.0445 nM	0.00211 s⁻¹	5.47 min	1.3	IC50 (read off the curve) [15]: ~1 nM; t½ pH 7.4/t½ pH 5.5 [13]: 1.5; koff [14]: 0.0028 s⁻¹; t½ [14]: 4.1 min
B4	–	0.621 nM	0.0012 s⁻¹	1.93e+06 M⁻¹ s⁻¹	9.6 min	0.00131 s⁻¹	8.85 min	0.00107 s⁻¹	10.8 min	1.1	0.27 nM	0.000359 s⁻¹	1.33e+06 M⁻¹ s⁻¹	32.2 min	0.278 nM	0.0758 nM	0.046 nM	0.00121 s⁻¹	9.56 min	0.8	EC50 [16]: 0.18 nM; t½ pH 7.4/t½ pH 5.5 [13]: 0.9; koff [14]: 0.000959 s⁻¹; t½ [14]: 12 min
